The record followed here is patent US20230051715A1 (MABWELL THERAPEUTICS, published 2023).

Assay [1] addresses T1, human C1s mutant M6 (P280A, E282K & K336G) (human, UniProt P09871 16-688).
T1 construct: The entry is the mutant itself
T1 sequence: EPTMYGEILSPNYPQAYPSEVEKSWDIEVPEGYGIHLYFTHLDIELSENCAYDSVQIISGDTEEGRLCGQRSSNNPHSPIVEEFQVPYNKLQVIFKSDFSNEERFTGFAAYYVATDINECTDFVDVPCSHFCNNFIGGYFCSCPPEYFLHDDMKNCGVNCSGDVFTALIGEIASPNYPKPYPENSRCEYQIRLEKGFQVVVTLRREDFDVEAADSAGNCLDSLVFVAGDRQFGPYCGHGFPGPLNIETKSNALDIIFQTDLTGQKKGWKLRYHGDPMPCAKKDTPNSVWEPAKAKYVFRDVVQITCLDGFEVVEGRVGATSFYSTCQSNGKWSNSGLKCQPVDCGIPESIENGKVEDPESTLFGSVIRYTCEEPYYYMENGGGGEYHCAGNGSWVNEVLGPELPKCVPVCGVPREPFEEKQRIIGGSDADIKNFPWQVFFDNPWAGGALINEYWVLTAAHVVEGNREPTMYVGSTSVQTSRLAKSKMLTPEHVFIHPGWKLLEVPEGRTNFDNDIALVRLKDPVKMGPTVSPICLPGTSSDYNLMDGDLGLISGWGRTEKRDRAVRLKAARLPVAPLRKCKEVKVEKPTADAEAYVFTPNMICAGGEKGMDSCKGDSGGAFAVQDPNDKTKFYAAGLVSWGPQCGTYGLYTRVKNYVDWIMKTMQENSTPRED
Kind of assay: ELISA, plate coated with human C1s mutant M6: P280A, E282K, K336G, OD450nm. The procedure:
ELISA was carried out by first coating 96-well plates with 200 ng/well of full-length or truncated C1s proteins overnight. The next morning, plates were blocked with SuperBlock T20 blocking buffer (Thermo Scientific 37536) for 1 h with gentle shaking. Then, various concentrations of anti-C1s antibodies diluted in SuperBlock T20 blocking buffer were added to the plates and incubated for 1 h with gentle shaking. Mouse IgG (Sigma-Aldrich 15381) and human IgG1 (BioXCell BP0297) were used as negative controls. The plates were washed before incubating with HRP conjugated secondary antibodies diluted in SuperBlock T20 blocking buffer (goat anti-mouse IgG (H+L) cross-adsorbed secondary antibody HRP (Invitrogen G-21040) or goat anti-human IgG antibody, HRP conjugate (Millipore AP309P)) for 1 h with gentle shaking. At last, the plates were washed and color developed with ELISA liquid HRP substrate (Sigma-Aldrich), followed by stopping the reaction with addition of 1M H₂SO₄ in the same volume as the ELISA liquid substrate. Bound antibody was measured by absorbance at OD₄₅₀ₙₘ.
Binding of anti-C1s antibodies to mutants M1-M20 of human C1s was measured by ELISA as described in Example 4, and results are shown in FIGS. 6B-6U. […]

The target in assay [2] is T2, active human C1s (CompTech A104 C1s Enzyme) (human, UniProt P09871 16-688).
T2 construct: also called human active C1s; active C1s protein
T2 sequence (looked up): T1 sequence with A280P, K282E, G336K
In words: BLI (Octet RED96e), antibody on AHC biosensor; HuC1s Form: Active; R^2 0.9998. The procedure:
Bio-Layer Interferometry technology was used for anti-C1s antibody affinity measurement and binding kinetics determinations with OCTET® RED96e system (Sartorius AG). Pre-hydrated Anti-Human IgG Fc Capture (AHC) biosensors were first equilibrated in 1×KB (Kinetic Buffer, 1×PBS pH 7.4+0.02% Tween-20+0.1% BSA) for 120 sec for the first baseline, followed by loading with […] anti-C1s antibody (2-7, FIG. 3A; 2-8, FIG. 3B; hz2-7(H1L2), FIG. 3C; hz2-8(H1L2 G80A/T82A, FIG. 3D) onto AHC biosensors for 240 sec. Then, the second baseline signal was established for 120 sec before association with various concentrations of active human C1s (CompTech A104) for 240-360 sec. At last, analyte was dissociated in 1×KB for 360 sec. Anti-C1s antibodies 2-7 and 2-8 were also analyzed against human C1s proenzyme (CompTech A103) (data not shown). Data analysis was carried out using OCTET® Data Analysis HT Software (Sartorius AG). KD, kₒₙ, koff and R² values were calculated for each antibody and target combination, as summarized in FIG. 3E showing high affinity binding with KD values in the low nanomolar to picomolar range.

Changes are numbered by the printed parent chain. In names and notes the source's numbering stands.

B1: Anti-C1s antibody hz2-7(H1L2) (antibody, V domains shown)
VH: EVQLLESGGGLVQPGGSLRLSCAASGFTFSNYFMNWVRQAPGKGLEWVSEIRLKFTNYATHYADSVKGRFTISRDDSKSTLYLQMNSLRAEDTAVYYCTRDYGSRNGYFDYWGQGTLVTVSS
VL: DIVMTQTPLSLPVTPGEPASISCRSSKSLLHSNGNTFLYWFLQKPGQSPQLLIYRMSNLASGVPDRFSGSGSGTDFTLKISRVEAEDVGVYYCMQHLEYPYTFGGGTKLEIKR
notes: Humanized, human IgG1 / kappa; also called hz2-7(1L2)
As to B1, the concentration giving a half-maximal response (EC50) in assay [1] was 0.013 µg/mL. In assay [2], the Kd came out at 0.24 nM, the off-rate (koff) turned out to be 7e-05 s⁻¹ and the kon came to 290000 M⁻¹ s⁻¹.

B2: Anti-C1s antibody hz2-8 (H1L2 G80A/T82A) (antibody, V domains shown)
VH: QVQLVQSGAEVKKPGASVKVSCKASGFNIKEYYMHWVRQAPEQGLEWMGWIDPENADAIYAQKFQGRVTITADTSTNTAYMELSSLRSEDTAVYYCARSRLFFAYWGQGTLVTVSS
VL: DIQMTQSPKSLSASVGDRVTITCRASQDVRTALDWYQQKPGQSPKLLIYSASYRYSGVPSRFSGSGSGTDFTLTISSLQPEDFATYYCQQQYTTPYTFGQGTKLEIKR
notes: Humanized variant with G80A and T82A in HC CDR2 (already in the entry), human IgG1 / kappa
B2: it took 0.06 µg/mL to reach a half-maximal effect in assay [1] (EC50). Besides, in assay [2], the dissociation constant Kd stood at 1.2 nM, the koff was 0.00029 s⁻¹ and the on-rate (kon) was determined as 240000 M⁻¹ s⁻¹.
